The target in assay [1] is T1, 人白介素-33 (human interleukin-33) (human, UniProt O95760 112-270).
T1 sequence: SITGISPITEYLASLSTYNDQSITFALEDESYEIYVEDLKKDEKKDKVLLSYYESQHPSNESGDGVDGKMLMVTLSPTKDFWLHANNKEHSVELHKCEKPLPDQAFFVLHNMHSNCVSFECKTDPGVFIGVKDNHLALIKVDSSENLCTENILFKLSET
Briefly: SPR, Biacore T200, 25℃, antibody captured on Protein A chip, IL-33 as analyte, 1:1 model. (In general: In SPR one partner is held on a chip, and binding of the other changes the refractive index at the surface.)

The target in assay [2] is T1, 人白介素-33 (human interleukin-33). In words: cell-based or functional assay.
Assay [3] deals with 天然人白介素-33 (natural human interleukin-33 from HFL-1 cell lysate) (human) (UniProt O95760). Briefly: cell-based or functional assay.
Assay [4] concerns the target T2, 天然人白介素-33 (natural human interleukin-33 from HFL-1 cell lysate) (human, UniProt O95760 1-270, limits assumed).
T2 sequence (looked up): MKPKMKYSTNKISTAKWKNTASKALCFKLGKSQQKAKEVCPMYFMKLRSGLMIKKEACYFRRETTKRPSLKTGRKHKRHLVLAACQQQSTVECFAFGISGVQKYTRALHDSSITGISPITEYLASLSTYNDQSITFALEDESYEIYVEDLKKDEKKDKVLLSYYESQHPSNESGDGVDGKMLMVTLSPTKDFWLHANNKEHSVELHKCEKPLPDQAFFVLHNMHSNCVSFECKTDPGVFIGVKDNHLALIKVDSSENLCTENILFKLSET
Briefly: cell-based or functional assay.

Turning to Etokimab/ANB020 (antibody), in assay [1], the Kd (as a rule, a measure of binding affinity in units of concentration) is 0.869 nM; the koff – broadly, the first-order rate constant of dissociation – was determined as 0.000369 s⁻¹; the kon (commonly the second-order rate constant of association) worked out at 424000 M⁻¹ s⁻¹. Besides, in assay [2], the 中和人白介素-33诱导人全血释放IFN-γ, IC50 worked out at 31.9 ng/mL; the 中和人白介素-33诱导的KU812细胞释放IL-5, IC50 came out at 44 ng/mL; the 抑制重组人白介素-33诱导HEK Blue IL-33细胞中NF-κB/AP-1信号转导 (SEAP reporter), IC50 is 6.05 ng/mL. Besides, the 抑制天然人白介素-33诱导HEK Blue IL-33细胞中NF-κB/AP-1信号转导 (SEAP reporter), IC50 in assay [3] amounted to 2.5 ng/mL.

B1: QX007N(HZD78-70) (antibody, V domains shown)
VH: EVQLVESGGGLVQPGGSLRLSCAASGFSLSSYHMIWVRQAPGKGLEWVGVIYPNSNIYYATWAKGRFTISRDNSKNTLYLQMNSLRAEDTAVYYCARTIYVHVYSALSIWGQGTLVTVSS
VL: AFQMTQSPSSVSASVGDRVTITCQASESVLNEVSWYQQKPGKAPKLLIYFASKLASGVPSRFSGSGSGTDFTLTISSLQPEDFATYYCQQDWSMDNIDNAFGGGTKVEIKR
In assay [1], B1 had a Kd of 1.23 nM, a koff of 0.000481 s⁻¹ and a kon of 392000 M⁻¹ s⁻¹. Also, the “抑制天然人白介素-33诱导HEK Blue IL-33细胞中NF-κB/AP-1信号转导 (SEAP reporter), IC50” value in assay [4] was found to be 3.91 ng/mL. Further, in assay [2], the “中和人白介素-33诱导人全血释放IFN-γ, IC50” value turned out to be 16 ng/mL; the “中和人白介素-33诱导的KU812细胞释放IL-5, IC50” value was 5.87 ng/mL; the “抑制重组人白介素-33诱导HEK Blue IL-33细胞中NF-κB/AP-1信号转导 (SEAP reporter), IC50” value was 6.67 ng/mL.

(Values after patent publication CN113912728A (QYUNS THERAPEUTICS CO LTD, dated 2022).)
